Reference: patent publication US20190142724A1 (CREDENTIS, published 2019)
No end group written: not given here.

Biological target: the molecule itself
Experiment: rheology (elastic modulus G'), P11-4 at 15 mg/ml in different buffers, 37 C; homotypic self-assembly
Description: P11-4 was prepared at 15 mg/ml with different buffer compositions (see below) measured at 0.1% strain, 37° C. and a frequency of 1 rad/second. Self-assembly of peptide monomers to polymers takes more than 5 min independent of the used ionic strength at neutral pH.

B1: self-assembling peptide P11-4 (peptide)
peptide: QQRFEWEFEQQ
modifications: not fully specified; printed as Gln-Gln-Arg-Phe-Glu-Trp-Glu-Phe-Glu-Gln-Gln
binding result: binds
